# Laboratory results: the RNAGym collection of RNA variant scans (doi:10.1073/pnas.2313332121)
# B1: TPR t1 (parent)
# chain: GACCAAUCUGCCCUCAGAGCUCGAGAACAUCUUCGGAUGCAGAGGAGGCAGGCUUCGGUGGCGCGAUAGCGCCAACGUCCUCAACCUCCAAUGCAUCCCACCACAUGAUGAUGCCUGAAGAGCCUUGGUUUUUUG
# Variants of: B1
# Assay: polymerase ribozyme fitness, log enrichment relative to wild type (log ratio); higher = more active; in vitro selection for triplet polymerase activity
# In short: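 One round of in vitro selection, in triplicate, was applied to PCR-built, transcribed mutant libraries of each subunit of a heterodimeric triplet polymerase ribozyme. The steps were annealing with a biotinylated primer, partner subunit and triplets, incubation frozen at −7 °C, gel excision of extended constructs, streptavidin-bead capture and RT-PCR. Fitness is the logarithm, base 2, of genotype enrichment over wild-type enrichment from inverse-variance-weighted replicate averages of Illumina-sequenced inputs and outputs, keeping genotypes with ≥10 input reads and ≥1 read per output.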
row,Variant,polymerase ribozyme fitness (log ratio)
1,GACCAAUCGGCCCUCAGAGCUCGAGAACAUCUUCGGAUGCAAAGGAGGCAGGCUUCGGUGGCGCGAUAGCGCCAACGUCCUCAACCUCCAAUGCAUCCCACCACUUGAUGAUGCCUGAAGAGCCUUGGUUUUUUG [U9G G42A A105U],-4.37
2,GACCAAUCGGCCCUCAGAGCUCGAGAACAUCUUCGGAUGCACAGAAGGCAGGCUUCGGUGGCGCGAUAGCGCCAACGUCCUCAAGCUCCAAUGCAUCCCACCACAUGAUGAUGCCUGAAGAGCCUUGGUUUUUUG [U9G G42C G45A C85G],-4.6
3,GACCAAUCGGCCCUCAGAGCUCGAGAACAUCUUCGGAUGCAGAGAAGGCAGGCUUCGGUGGCGCGAUAGCGCCAACGUCCUCAACCUCCAAUGCAUCCCACCACAUGAUGAUGCCUGAAGAGCCUUGGUUUUUUG [U9G G45A],0.293
4,GACCAAUCGGCCCUCAGAGCUCGAGAACAUCUUCGGAUGCAGAGAAGGUAGGCUUCGGUGGCGCGAUAGCGUCAACGUCCUCAACCUCCAAUACAUCCCACCACAUGAUGAUGCCUGAAGAGCCUUGGUUUUUUG [U9G G45A C49U C72U G93A],-1.56
5,GACCAAUCGGCCCUCAGAGCUCGAGAACAUCUUCGGAUGCAGAGUAGGCAGGCUUCGGUGGCGCGAUAGCGCCAACGUCCUCAACCUCCAACGCAUCCCACCACAUGAUGAUGCCUGAAGAGCCUUGGGUUUUUG [U9G G45U U92C U129G],-1.65
6,GACCAAUCGGCCCUCAGAGCUCGAGAACAUCUUCGGAUGCAGAGGAGACAGGCUUCGGUGGCGCGAUAGCGCCAACGUCCUCAACCUCCAAUCCAUCCCACCACAUGAUGAUGCCUGAAGAGCCUUGGUUUUUUG [U9G G48A G93C],-1.01
7,GACCAAUCGGCCCUCAGAGCUCGAGAACAUCUUCGGAUGCAGAGGAGUCAGGCUUCGGUGGCGCGAUAGCGCCAACGUCCUCAACCUCCAAUGCAUCCCACCACAUGAUGAUGCCUGAAGAGCCUUGGUUUUUUG [U9G G48U],-1.27
8,GACCAAUCGGCCCUCAGAGCUCGAGAACAUCUUCGGAUGCAGAGGAGUCAGGCUUCGGUGGCGCGAUAGCGCCAACGUCCUCAACCUACAAUGCAUCCCACCACAUGAUGAUGCCUGAAGAGCCUUGGUUUUUUG [U9G G48U C88A],-1.04
9,GACCAAUCGGCCCUCAGAGCUCGAGAACAUCUUCGGAUGCAGAGGAGUCAGGCUUCGGUGGCGCGAUAGCGCCAACGUCCUCAACCUCCAAUCCAUCCCACCACAUGAUGCUGCCUGAAGAGCCUUGGUUUUUUG [U9G G48U G93C A111C],-1.91
10,GACCAAUCGGCCCUCAGAGCUCGAGAACAUCUUCGGAUGCAGAGGAGGCACGCUUCGGUGUCGCGAUAGCGCCAACGUCCUCAACCUCCAAUGCAUCCCACCACAUGAUGAUGCCUGAAGAGCCUUCGUUUUUUG [U9G G51C G61U G127C],-3.3
11,GACCAAUCGGCCCUCAGAGCUCGAGAACAUCUUCGGAUGCAGAGGAGGCAGUCUUCGGUGGCGCGAUAGUGCCAACGUCCUCAACCUGCAAUGCAUCCCACCACAUGAUGAUGCCUGAAGAGACUUGGUUUUUUG [U9G G52U C70U C88G C123A],-0.768
12,GACCAAUCGGCCCUCAGAGCUCGAGAACAUCUUCGGAUGCAGAGGAGGCAGGCUUCAGUGGCGCGAUAGCGCCAACGUACUCAACCUCCAAUGCAUCCCACCACAUGAUGAUGCCUGAAGAGCCUUGGUUUUUUG [U9G G57A C79A],-1.03
13,GACCAAUCGGCCCUCAGAGCUCGAGAACAUCUUCGGAUGCAGAGGAGGCAGGCUUCGUUGGCGCGAUAGCGCCAACGUCCUCAACCUCCAAUGCAUCCCACCACAUGAUGAAGCCUGAAAAGCCUUGGUCUUUUG [U9G G58U U112A G120A U130C],0.977
14,GACCAAUCGGCCCUCAGAGCUCGAGAACAUCUUCGGAUGCAGAGGAGGCAGGCUUCGGUAGCGCGAUAGCGCCAACGUCCUCAACCUCCCAUGCAUCCCACCACAUGAUGAUGCCUGAAGAGUCUUGGUUUUUUG [U9G G60A A90C C123U],0.324
15,GACCAAUCGGCCCUCAGAGCUCGAGAACAUCUUCGGAUGCAGAGGAGGCAGGCUUCGGUUGUGCGAUAGCGCCAACGUCCUCAACCUCCAAUGCAUCCCACCACAUGAUGAUGCCUGAAGAGCCUUGGUUUUUUG [U9G G60U C62U],-1.11
16,GACCAAUCGGCCCUCAGAGCUCGAGAACAUCUUCGGAUGCAGAGGAGGCAGGCUUCGGUGCCGCGAUAGCGCCAACGUCCUCAACCUCCAAUGCAUCCCACAACAUGAUGAUGCCUGAAGAACCAUGGUUUUUUG [U9G G61C C102A G122A U125A],-4.92
17,GACCAAUCGGCCCUCAGAGCUCGAGAACAUCUUCGGAUGCAGAGGAGGCAGGCUUCGGUGUCGCGAUAGCGCCAACGUCCUCAACCUCCAAUGCAUCCCACCACAUGAUGAUGCCUAAAGAGCCUUGGUUUUUUG [U9G G61U G117A],1.58
18,GACCAAUCGGCCCUCAGAGCUCGAGAACAUCUUCGGAUGCAGAGGAGGCAGGCUUCGGUGGCGCAAUAGCGGCAACGUCCUCAACCUCCAAUGCAUCCCACCACAUGAUGAUGCCUGAAGAAGCUUGGGUUUUUG [U9G G65A C72G G122A C123G U129G],-5.67
19,GACCAAUCGGCCCUCAGAGCUCGAGAACAUCUUCGGAUGCAGAGGAGGCAGGCUUCGGUGGCGCGAUACCGCCAACGUCCUCAACCUCCAAUGCAUCCCACCACUUGAUGAGGCCUGAAGAGCCUUGGUUUUUUG [U9G G69C A105U U112G],-4.11
20,GACCAAUCGGCCCUCAGAGCUCGAGAACAUCUUCGGAUGCAGAGGAGGCAGGCUUCGGUGGCGCGAUAGCUCCAACGUCCUCAACCUCCAAUGCAUCCCACCACAUGAUGAUGCCUGAAGAGCCUUGGUUUUUUG [U9G G71U],0.107
21,GACCAAUCGGCCCUCAGAGCUCGAGAACAUCUUCGGAUGCAGAGGAGGCAGGCUUCGGUGGCGCGAUAGCGCCAACACCCUCAACCUCCAAUGCAUCACACCACAUGAUGAUCCCUGAAGAGCCUUGGUUUUUUG [U9G G77A U78C C98A G113C],-5.07
